Assay in all cases: purified protein
Holding throughout (type): biochemical, Trametes cinnabarina
What all share (conditions): 50 mM sodium tartrate pH 6, 30 °C, HRP 8 U, 0.1 mM ABTS, 5 µM H2O2

Substrate in series [1]: O=Cc1ccc(CO)o1
Substrate in series [2]: O=Cc1ccc(C=O)o1
Substrate in series [3]: O=CC=O
Substrate in series [4]: OCC(O)CO
Substrate in series [5]: O=CC(=O)O
Substrate in series [6]: CC(=O)C=O

What is called Km is the concentration of substrate that gives half-maximal velocity. One may read the kcat as the maximal rate divided by the concentration of active sites. What is called kcat/Km is the second-order rate constant that governs catalysis at low substrate concentration.

B1: PciGLOX1 (Trametes cinnabarina) (protein)
chain: APSAPGWRFDLKAERSGIVALESIVVSPTLVLWFDRASDDPLQINNHSAWGALWNLETSTVRPLNVLTNSFCASGALLSNGSMASVGGDPRGFPGNPAINPGNQAIRIFEPCASPTGDGCTVFEDPQTLHLLEDRWYPSSIRIFDGSLLIVGGTHVNENFYNLHPANSFEFFPPKESTPRPSAFLERSLPANLFPRIFALPDGKVFMVANNQSIIYDIEANTERILPDIPNNVRVTNPIDGSAILLPLTPPDYIPEVLVCGGTSTDPLDPSLLSSQTPATTQCSRIRLDEEGIAKGWQVEHMLEPRTMPELVHIPNGQILIANGARTGFAAIKQVQDPIGNSNSDHAVLVPSIYTPDAPLGQRISNAGMPSSGIARVYHSSITLTPQGNFLIAGSNPNGNTTVGPGVKFPSEFRVQTLDPPFMFVERPKILNTPEKLAFNKTFTVPISVPSTLASPGAKVQVSLMDLGFSSHAFHSSARLVFMDATISRDRRSLTFTTPPNGRVFPPGPATVFLTIDGVTSEGAWVMMGSGNSPPTLE
notes: secreted copper radical oxidase (AA5), heterologously produced in Aspergillus niger, purified
With B1, in the series “purified protein [1]”, the Michaelis constant (Km) turned out to be 15660 ± 2350 µM, the turnover number (kcat) is 1.59 ± 0.12 s⁻¹ and the kcat/Km worked out at 101.66 ± 0.01 M⁻¹ s⁻¹. For the same protein, in the series “purified protein [2]”, the Michaelis constant (Km) worked out at 4380 ± 100 µM, the catalytic constant (kcat) was found to be 0.54 ± 0.24 s⁻¹ and the specificity constant (kcat/Km) is 124.39 ± 0.01 M⁻¹ s⁻¹.

B2: PciGLOX2 (Trametes cinnabarina) (protein)
chain: APSTPTGWQFNLKAERSGIVALESIVVSPTLVVFFDRATNDPLQINNHSAWGALWNLETSTVRALDVLTNSFCASGALLSNGTMASIGGDPNGFPGNPAIHPGTQAIRLFEPCDSPTGEGCTLFEDPVTLHLLEKRWYPSSVRIFDGSLLIVGGMHEETPFYNTDPALSFEFFPPKESTPRPSEFLNRSLPANLFPRVFALPDGKVFMVANNQSIIYDIEANTERILPDIPNNVRVTNPIDGSAILLPLSPPDFVPEVLVCGGTQTDTIDPSLLTSQTPASSQCSRIRLDEEGIARGWEVEHMLEGRMMPELVHLPNGQVLIANGARTGFAAIASVSDPVGGSNADHAVLVPSLYTPDAPLGTRISNVGLPSSGIARVYHSSITLTPQGNFLIAGSNPNNNSSVTAGVKFPSEFRVQTLDPPFMFVERPKILSMPKKLAFGKSFTVPIAVPSTLAHPGAKVQVSLMDLGFSSHAFHSSARLVFMNAKISQDGKSLTFTTPPNGRVYPPGPATIFLTIDDVTSEGAWVMMGSGNPPPTLE
notes: as for B1
For B2, in the series “purified protein [1]”, the Km stood at 5870 ± 2040 µM, the kcat worked out at 0.56 ± 0.09 s⁻¹ and the kcat/Km turned out to be 96.04 ± 0.01 M⁻¹ s⁻¹. Further, in “purified protein [2]”, the Km was 210 ± 40 µM, the catalytic constant (kcat) amounted to 4.8 ± 0.24 s⁻¹ and the specificity constant (kcat/Km) was found to be 23404 ± 0.01 M⁻¹ s⁻¹.

B3: PciGLOX3 (Trametes cinnabarina) (protein)
chain: APSAPGWSFDLKKETSGIVALEAIVVSPTLVVFFDRASDDPLQINNHSAWGALWNLESSTVRPLDVLTNSFCASGALLSNGTMASVGGDPDGFVGNPAIRPGNQAIRLFEPCDSPTGDGCTLFEDPATLHLLEKRWYPSSARIFDGSLIIVGGMHEATPFYNTDPALSFEFFPRKEDTPRPSEFLNRSLPANLFPRVFALPDGKVFMVANNQSIIYDIEAKTERILPDVPNNVRVTNPMDGSAILLPLSPPDFVPEVLVCGGSQTDTIDPSLLTSQTPASSQCSRIRLDEEGIAKGWEVEHMLEGRIMPELVHLPNGQVLIANGGRTGFAAIASVSEPVGNSNADHPVLVPSLYTPDAPLGRRISNVGLPSSGIPRLYHSSVTLTPQGNFLIAGSNPNNRTTVGPGIKFPSEFRVQTLDPPFMSVERPKILNMPKKLGFNKSFTVPISVPSSLARPGAKVQISLMDLGFSSHAFHSSARLVFMNGKISQDSKSLTFTTPPNGRVYPPGPATVFLTIDDVTSEGAWVMMGSGNSPPTLE
notes: as for B1
As to B3, the Km was found to be 700 µM in the series “purified protein [3]”; 5500 µM in the series “purified protein [4]”; 6350 ± 1320 µM in “purified protein [1]”; 500 µM in “purified protein [5]”; 180 ± 50 µM in “purified protein [2]”; 100 µM in the series “purified protein [6]”. The turnover number (kcat) in “purified protein [1]” amounted to 0.75 ± 0.07 s⁻¹; in “purified protein [2]”, 1.28 ± 0.09 s⁻¹. Also, the catalytic efficiency (kcat/Km) in “purified protein [1]” was 118.35 ± 0.01 M⁻¹ s⁻¹; in the series “purified protein [2]”, 7267.7 ± 0.01 M⁻¹ s⁻¹.

The values above are taken from PMC6442418, “Pycnoporus cinnabarinus glyoxal oxidases display differential catalytic efficiencies on 5-hydroxymethylfurfural and its oxidized derivatives” (Fungal Biology and Biotechnology, 2019).
